B1: dsDNA1 (dsDNA)
DNA 1: CTCAGGTCAAAGGTCACG
DNA 2: TCGTGACCTTTGACCTGA
B2: dsDNA2 (dsDNA)
DNA 1: CTGTCAAAGGTG
DNA 2: TCACCTTTGACA

Columns and labels:
ARID4B TD151 [1] = biological target: T1, ARID4B TD151 (Homo sapiens, UniProt Q4LE39 1-151); assay: ITC; 50 mM Tris-HCl pH 7.6, 50 mM NaCl (buffer A); ITC 25 C; EMSA 4 C, 12 uM DNA, 8% native gel in TBE; NMR titration by 1H-15N HSQC (temperature not stated for titration; buffer A also defined elsewhere as 20 mM phosphate, 100 mM NaCl, pH 7.0); details: protein: recombinant; chain copies: 3; 5' overhang 1 nt on each strand (17 bp paired)
T1 sequence: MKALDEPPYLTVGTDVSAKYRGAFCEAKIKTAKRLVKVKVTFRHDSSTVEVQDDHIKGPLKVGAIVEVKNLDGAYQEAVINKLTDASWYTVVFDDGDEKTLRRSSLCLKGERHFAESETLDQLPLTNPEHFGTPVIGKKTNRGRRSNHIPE

ARID4A TD151 = biological target: T2, ARID4A TD151 (Homo sapiens, UniProt P29374 4-151); assay: NMR titration; n = 3; 50 mM Tris-HCl pH 7.6, 50 mM NaCl (buffer A); ITC 25 C; EMSA 4 C, 12 uM DNA, 8% native gel in TBE; NMR titration by 1H-15N HSQC (temperature not stated for titration; buffer A also defined elsewhere as 20 mM phosphate, 100 mM NaCl, pH 7.0); details: protein: recombinant; 5' overhang 1 nt on each strand (17 bp paired)
T2 sequence: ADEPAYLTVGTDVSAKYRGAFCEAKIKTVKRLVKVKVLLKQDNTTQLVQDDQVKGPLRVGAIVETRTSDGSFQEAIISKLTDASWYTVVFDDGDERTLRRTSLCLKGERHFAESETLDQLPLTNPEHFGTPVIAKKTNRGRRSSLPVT

ARID4B TD151 [2] = biological target: T1, ARID4B TD151; assay: NMR titration; n fixed 3; 50 mM Tris-HCl pH 7.6, 50 mM NaCl (buffer A); ITC 25 C; EMSA 4 C, 12 uM DNA, 8% native gel in TBE; NMR titration by 1H-15N HSQC (temperature not stated for titration; buffer A also defined elsewhere as 20 mM phosphate, 100 mM NaCl, pH 7.0); details: protein: recombinant; chain copies: 3; 5' overhang 1 nt on each strand (17 bp paired)
ARID4B TD121 [3] = biological target: T3, ARID4B TD121 (Homo sapiens, UniProt Q4LE39 1-121); assay: NMR titration; n fixed 5; text says ~110; 50 mM Tris-HCl pH 7.6, 50 mM NaCl (buffer A); ITC 25 C; EMSA 4 C, 12 uM DNA, 8% native gel in TBE; NMR titration by 1H-15N HSQC (temperature not stated for titration; buffer A also defined elsewhere as 20 mM phosphate, 100 mM NaCl, pH 7.0); details: protein: recombinant; 5' overhang 1 nt on each strand (17 bp paired)
T3 sequence: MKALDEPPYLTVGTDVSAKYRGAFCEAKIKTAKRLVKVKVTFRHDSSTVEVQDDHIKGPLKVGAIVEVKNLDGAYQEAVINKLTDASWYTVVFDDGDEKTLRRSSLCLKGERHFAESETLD

ARID4B TD151 [4] = biological target: T1, ARID4B TD151; assay: NMR titration; n fixed 2; 50 mM Tris-HCl pH 7.6, 50 mM NaCl (buffer A); ITC 25 C; EMSA 4 C, 12 uM DNA, 8% native gel in TBE; NMR titration by 1H-15N HSQC (temperature not stated for titration; buffer A also defined elsewhere as 20 mM phosphate, 100 mM NaCl, pH 7.0); details: protein: recombinant; chain copies: 3; 5' overhang 1 nt on each strand (11 bp paired)
ARID4B TD121 [5] = biological target: T3, ARID4B TD121; assay: NMR titration; n fixed 3; 50 mM Tris-HCl pH 7.6, 50 mM NaCl (buffer A); ITC 25 C; EMSA 4 C, 12 uM DNA, 8% native gel in TBE; NMR titration by 1H-15N HSQC (temperature not stated for titration; buffer A also defined elsewhere as 20 mM phosphate, 100 mM NaCl, pH 7.0); details: protein: recombinant; 5' overhang 1 nt on each strand (11 bp paired)

Binder | Kd (ARID4B TD151 [1]) [µM] | Kd (ARID4A TD151) [µM] | Kd (ARID4B TD151 [2]) [µM] | Kd (ARID4B TD121 [3]) [µM] | Kd (ARID4B TD151 [4]) [µM] | Kd (ARID4B TD121 [5]) [µM]
B1 | 27 ± 8 | 9.7 ± 0.9 | 22 | 111 ± 2 | – | –
B2 | – | – | – | – | 79 ± 3 | 237 ± 7

Source: publication PMC8038949, “Structural basis for the DNA-binding activity of human ARID4B Tudor domain”
